From paper PMC9044917 (Nature structural & molecular biology, 2022)
Where two headings read alike, the source gives them in different places.

Legend:
[1] = biological target: the molecule itself; test: negative stain EM
[2] = biological target: the molecule itself; test: negative stain EM; remark: listed apart in the source

Protein | binding result [1] | binding result [2]
IMPDH1(514)-K238E (enzyme) not shown | binds | 
IMPDH1(514)-R224P (enzyme) not shown | binds | 
IMPDH1(514)-D226N (enzyme) not shown | binds | 
IMPDH1(514)-H372P (enzyme) not shown | binds | 
IMPDH1(514) (enzyme) not shown |  | binds
IMPDH1(514)-T116M (enzyme) not shown | binds | 
IMPDH1(514)-R231P (enzyme) not shown | binds | 
IMPDH1(514)-N198K (enzyme) not shown | binds | 
IMPDH1(514)-R105W (enzyme) not shown | binds | 
IMPDH1(514)-V268I (enzyme) not shown | binds | 
